From patent US9808503B2, “Allergen peptide fragments and use thereof for treatment of birch pollen allergies” (ANERGIS S.A., priority 2003, dated 2017)

Tests used:
[1] = tested on: bee venom (BV) hypersensitive patients; assay: Intradermal (ID) skin tests; assay type: in vivo, human; details: for immediate allergic reaction to intradermal injection: representative patient of peptide group (FIG. 5), 1 μg/ml each OPF, 0.01 μg/ml native PLA2
Method: Skin testing: ID tests with BV, PLA2 and peptides were performed as described in Müller et al., Allergy 48(14):37-46, 1993. Concentrations tested ranged from 10^−3 μg/ml to 1 μg/ml (10-fold dilution series). […] The 0.1 μg/ml concentration was defined as the end-point concentration (EPC), as higher concentrations of BV and PLA2 may induce non specific toxic reactions. See Müller et al., J. Allergy Clin. Immunol. 96:395-402, 1995.

[2] = tested on: IgE; assay: In vitro IgE binding, dot blot analysis; set-up: species or system human; details: 1 μg spotted; control and peptide groups; order: OPF90-134, then OPF1-60
Method: Immunoblotting and dot blot analysis: Anti-BV or -PLA2 immunoblots were processed as described in Kettner et al., Clin. Experiment. Allergy 29:394-401, 1999. For dot blot analysis, 1 μg of whole BV, PLA2, OPFs or human albumin was diluted ¼ in DMSO, spotted on PVDF membranes and dried for 30 min. at 37° C. After blocking in non-fat milk 5%, further steps were performed as described in Kettner et al., Clin. Experiment. Allergy 29:394-401 1999. Dot densities were analyzed by scanning densitometry using an Advanced American Biotechnology scanner, Fullerton, Calif.

Substance | ID tests ([1]; day 0, all patients in OPF and control group) | immediate allergic reaction to intradermal injection [1] | IgE binding to the peptide (order among the three OPFs) [2]
phospholipase A2 [native PLA2, reference compound] | positive | positive | 
OPF1-60: PLA2 fragment amino acid sequence (60 aa), N-terminal overlapping peptide fragment of Apis mellifera PLA2 (IIYPGTLWCGHGNKSSGPNELGRFKHTDACCRTHDMCPDVMSAGESKHGLTNTASHTRLS) |  | absence of immediate allergic reaction | 
OPF47-99: PLA2 fragment amino acid sequence (53 aa), internal overlapping peptide fragment of Apis mellifera PLA2 (KHGLTNTASHTRLSCDCDDKFYDCLKNSADTISSYFVGKMYFNLIDTKCYKLE) |  | absence of immediate allergic reaction | undetectable
OPF90-134: PLA2 fragment amino acid sequence (45 aa), C-terminal overlapping peptide fragment of Apis mellifera PLA2 (LIDTKCYKLEHPVTGCGERTEGRCLHYTVDKSKPKVYQWFDLRKY) |  | absence of immediate allergic reaction | higher level
